From PMC8618245, “Mechanisms of CP190 Interaction with Architectural Proteins in Drosophila Melanogaster” (International Journal of Molecular Sciences, 2021)
Where a chain is given by its changes, count along the chain named. Names may count otherwise.

T1: 6×His-Thioredoxin-fused CP190 1–126 (BTB domain) (Drosophila melanogaster), Q24478
T1 chain: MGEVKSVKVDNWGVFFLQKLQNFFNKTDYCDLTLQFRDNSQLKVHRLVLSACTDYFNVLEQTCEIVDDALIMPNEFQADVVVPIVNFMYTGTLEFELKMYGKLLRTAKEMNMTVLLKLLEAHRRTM

B1: 6×His-Thioredoxin-fused CP190 1–126 L118A (domain or fragment, Drosophila melanogaster, UniProt Q24478 1-126, looked up)
chain: T1 chain with L118A
notes: CP190, Drosophila melanogaster, residues 1–126 (BTB domain); also called BTB^L118A; source: E. coli BL21, co-expressed with the GST fusion, in lysate (pull-down); bacterial expression (cross-linking)
B2: 6×His-Thioredoxin-fused CP190 1–126 V114N (domain or fragment, Drosophila melanogaster, UniProt Q24478 1-126, looked up)
chain: T1 chain with V114N
notes: CP190, Drosophila melanogaster, residues 1–126 (BTB domain); source: E. coli BL21, co-expressed with the GST fusion, in lysate (pull-down); bacterial expression (cross-linking)
B3: 6×His-Thioredoxin-fused CP190 1–126 K117S (domain or fragment, Drosophila melanogaster, UniProt Q24478 1-126, looked up)
chain: T1 chain with K117S
notes: as for B2
B4: 6×His-Thioredoxin-fused CP190 1–126 K19A (domain or fragment, Drosophila melanogaster, UniProt Q24478 1-126, looked up)
chain: T1 chain with K19A
notes: as for B2
B5: 6×His-Thioredoxin-fused CP190 1–126 F15A (domain or fragment, Drosophila melanogaster, UniProt Q24478 1-126, looked up)
chain: T1 chain with F15A
notes: as for B2
B6: 6×His-Thioredoxin-fused CP190 1–126 V7A (domain or fragment, Drosophila melanogaster, UniProt Q24478 1-126, looked up)
chain: T1 chain with V7A
notes: CP190, Drosophila melanogaster, residues 1–126 (BTB domain); also called BTB^V7A; source: E. coli BL21, co-expressed with the GST fusion, in lysate (pull-down); bacterial expression (cross-linking)
B7: 6×His-Thioredoxin-fused CP190 1–126 V114A (domain or fragment, Drosophila melanogaster, UniProt Q24478 1-126, looked up)
chain: T1 chain with V114A
notes: as for B2
B8: 6×His-Thioredoxin-fused CP190 1–126 (BTB domain), Q24478 1-126 (domain or fragment)
chain: T1 chain

Target: the molecule itself
Assay: cross-linking; glutaraldehyde, thioredoxin-fused BTB domains at 5 μM, 10 min at room temperature, 20 mM HEPES pH 7.7, 150 mM NaCl, 20 mM imidazole, 1 mM β-mercaptoethanol; SDS-PAGE, silver staining
Conditions: not given

Stoichiometry N, 2:
B1, B2, B3, B4, B5, B6, B7

Target: T1, 6×His-Thioredoxin-fused CP190 1–126 …
Assay: as above
Conditions: remark: other sources report otherwise

Stoichiometry N, 2:
B8
